Source: patent publication CN116333117A (LAITEKANG SUZHOU BIOPHARMACEUTICAL CO LTD, dated 2023)

Experiments:
[1] = molecular target: T1, hEGFR/ECD-his (自制的C-末端具有his标签的人EGFR胞外域蛋白全长) (human, UniProt P00533 25-645); assay: ELISA, coated hEGFR/ECD-his 1 ug/mL, anti-hIgG Fc-HRP
T1 construct: extracellular domain; Home-made antigen; also called hEGFR/EDC-his; hEGFR/EGFR-his; not shown: C-terminal his tag

HER3 = molecular target: T2, HER3 (human, UniProt P21860 20-643, limits assumed); assay: ELISA, coated HER3, antibody in 3-fold dilutions
T2 construct: also called ErbB3

[2] = molecular target: T1, hEGFR/ECD-his …; assay: BLI (ForteBio Qke), antibody on Protein A probes, hEGFR in solution from 20 ug/mL in 1:2 dilutions
HER4 = molecular target: T3, HER4 (human, UniProt Q15303 26-649, limits assumed); assay: ELISA, coated HER4, antibody in 3-fold dilutions
T3 construct: also called ErbB4
T3 sequence (looked up): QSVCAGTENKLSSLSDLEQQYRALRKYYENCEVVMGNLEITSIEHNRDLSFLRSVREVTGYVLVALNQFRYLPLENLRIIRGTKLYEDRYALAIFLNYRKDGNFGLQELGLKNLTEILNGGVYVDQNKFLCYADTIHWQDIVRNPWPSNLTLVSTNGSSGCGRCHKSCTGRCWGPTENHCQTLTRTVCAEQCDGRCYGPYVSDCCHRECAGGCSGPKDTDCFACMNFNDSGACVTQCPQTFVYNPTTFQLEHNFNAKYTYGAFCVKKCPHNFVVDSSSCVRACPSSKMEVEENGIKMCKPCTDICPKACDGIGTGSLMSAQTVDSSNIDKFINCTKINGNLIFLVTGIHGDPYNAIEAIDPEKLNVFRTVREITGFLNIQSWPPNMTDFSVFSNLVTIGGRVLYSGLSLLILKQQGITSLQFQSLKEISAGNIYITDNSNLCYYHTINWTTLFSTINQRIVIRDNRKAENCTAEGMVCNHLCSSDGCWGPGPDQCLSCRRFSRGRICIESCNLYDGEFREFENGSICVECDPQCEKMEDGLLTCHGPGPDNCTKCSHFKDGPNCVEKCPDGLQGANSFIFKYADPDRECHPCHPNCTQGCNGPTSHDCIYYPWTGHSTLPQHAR

HER2 = molecular target: T4, HER2 (human, UniProt P04626 23-652, limits assumed); assay: ELISA, coated HER2, antibody in 3-fold dilutions
T4 construct: also called ErbB2

T2 sequence (P21860 20-643 limits assumed): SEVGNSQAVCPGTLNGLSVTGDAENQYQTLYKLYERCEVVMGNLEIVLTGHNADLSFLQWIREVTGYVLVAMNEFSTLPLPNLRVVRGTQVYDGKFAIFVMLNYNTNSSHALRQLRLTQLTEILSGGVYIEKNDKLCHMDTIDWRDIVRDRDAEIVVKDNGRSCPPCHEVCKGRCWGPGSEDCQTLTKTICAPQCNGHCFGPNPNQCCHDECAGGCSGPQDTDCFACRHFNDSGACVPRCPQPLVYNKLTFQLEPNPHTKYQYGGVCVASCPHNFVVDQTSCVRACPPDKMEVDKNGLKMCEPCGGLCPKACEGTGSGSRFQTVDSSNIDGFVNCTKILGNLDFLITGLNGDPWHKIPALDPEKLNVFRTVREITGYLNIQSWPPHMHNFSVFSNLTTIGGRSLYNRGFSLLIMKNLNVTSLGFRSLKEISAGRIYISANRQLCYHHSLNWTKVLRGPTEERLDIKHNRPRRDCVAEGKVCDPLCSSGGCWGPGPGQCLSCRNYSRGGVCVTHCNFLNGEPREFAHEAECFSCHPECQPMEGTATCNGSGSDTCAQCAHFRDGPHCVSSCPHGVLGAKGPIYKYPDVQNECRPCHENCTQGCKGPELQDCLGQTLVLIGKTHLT

B1: mouse anibody1129 (mAb1129) (antibody, V domains shown)
VH: DVMLVESGGGLVKPGGSLKLSCAASGFAFSNYDMSWVRQTPEKRLEWVAYISSGGDITYYLDTVKGRFTISRDNAKNTLYLQMSSLKSEDTAMYYCARSHYGYYGDTMDYWGQGTSVTVSS
VL: DVVMTQTPLSLPVSLGDQASISCRSSQSLVHSNGNTYLHWYLQKPGQSPKLLIYKVSNRFSGVPDRFSGSGSGTDFTLKISRVEAEDLGVYFCSQSTHVPPTFGGGTKLEIK
notes: also called 抗EGFR抗体mAb1129; 小鼠抗EGFR抗体; not shown: human kappa light chain constant region
EC50 [1]: ~0.0199 mg/L | binding result (HER3): no binding (tested: 起始浓度为2μg/mL) | Kd [2]: ~2.03 nM | binding result (HER4): no binding (tested: 起始浓度为2μg/mL) | binding result (HER2): no binding (tested: 起始浓度为2μg/mL)
